US10023629B2 (priority 2012, dated 2018)
Entries after “also recorded” stand apart in the source; their conditions may differ.

Columns and labels:
[1] = biological target: N1rec, tetrameric recombinant N1 Neuraminidase (Influenza A virus, UniProt Q30CC2); assay: biochemical; parameters: species or system H5N1 A/crested eagle/Belgium/09/2004
[2] = system: H5N1 NIBRG-23; assay: microbe, parasite or virus in culture; type: cell-based, H5N1 influenza virus in MDCK cells; settings: Influenza A virus, H5N1, read-out: NIBRG-23, plaque size reduction
[3] = system: H5N1 NIBRG-14; assay: microbe, parasite or virus in culture; type: cell-based, H5N1 influenza virus in MDCK cells
[4] = system: NIBRG-14ma virus; parameters: species or system BALB/c mice; settings: mouse, in vivo
[5] = biological target: N1rec, tetrameric recombinant N1 Neuraminidase (soluble recombinant H5N1 NA derived from A/crested e (influenza A virus A/crested eagle/Belgium/01/2004 (H5N1))); assay: SPR (Biacore 3000), N1rec immobilized on CM5 chip, VHHm injected
[6] = biological target: N1rec, tetrameric recombinant N1 Neuraminidase (soluble recombinant H5N1 NA derived from A/crested e (influenza A virus A/crested eagle/Belgium/01/2004 (H5N1))); assay: cell-based or functional assay
[7] = biological target: N1rec, tetrameric recombinant N1 Neuraminidase (soluble recombinant H5N1 NA derived from A/crested e (influenza A virus A/crested eagle/Belgium/01/2004 (H5N1))); assay: SPR, immobilized N1rec
[8] = system: N1rec; type: binding, H5N1 A/crested eagle/Belgium/09/2004

CCOC(=O)C1=C[C@@H](OC(CC)CC)[C@H](NC(C)=O)[C@@H](N)C1 [Oseltamivir]
IC50 [1]: 586 nM
IC50 [2]: 73000 nM
IC50 ([3]; Influenza A virus, H5N1, read-out: NIBRG-14, plaque size reduction): 15000 nM
morbidity (body weight) [4]: significant body weight loss
protection against lethality [4]: protected the mice against lethality; also recorded: full protection
viral RNA in lung homogenates (RT-qPCR Ct) [4]: only slightly different
survival ([4]; po, 1 mg/kg/day): 100%

B1: N1-3-VHHm (VHH)
VHH: QVQLQESGGGLVQPGGSLRLSCAASGSIFSIHDMGWYRRAPGKQRELVAAITSGGSTNYADSVKGRFTISRDNAKNTVSLQMNSLKPEDTAVYYCNAWGEDYGLGEYDSWGQGTQVTVSS
Kd [5]: 0.37 nM
koff [5]: 0.0013 s⁻¹
kon [5]: 3.6e+06 M⁻¹ s⁻¹
IC50 of inhibition of the catalytic N1 NA activity (MUNANA, 160 ng N1rec) [6]: 425 nM

B2: N1-5-VHHm (VHH)
VHH: QVQLQESGGGLVQPGGSLRLSCAASGSDISIYEMGWYRQAPGKQRELVAAITSGGTTNYADSVKGRFTISRDNAKNTVYLQMNSLKPEDTAVYYCNAADFDLWEYDYWGQGTQVTVSS
Kd [5]: 4.7 nM
koff [5]: 0.00058 s⁻¹
kon [5]: 120000 M⁻¹ s⁻¹
IC50 of inhibition of the catalytic N1 NA activity (MUNANA, 160 ng N1rec) [6]: 375 nM

B3: N1-7-VHHm (VHH)
VHH: QVQLQESGGGLVQPGGSLRLSCAASGSRFSRYDMGWYRQAPGKQRELVATITSGGITNYADSVKGRFTISRDNTKNTVYLQMNSLKPEDTAVYYCNAEDPLRAIQLGSLTYEYWGQGTQVTVSS
fold lower affinity (KD) than N1-3-VHHm [7]: 100 fold
fold lower affinity (KD) than N1-5-VHHm [7]: 10 fold
Kd [5]: 63 nM
koff [5]: 0.0028 s⁻¹
kon [5]: 44000 M⁻¹ s⁻¹

B4: N1-7-VHHm: binding but non-inhibitory N1-VHHm control (protein)
VHH: QVQLQESGGGLVQPGGSLRLSCAASGSRFSRYDMGWYRQAPGKQRELVATITSGGITNYADSVKGRFTISRDNTKNTVYLQMNSLKPEDTAVYYCNAEDPLRAIQLGSLTYEYWGQGTQVTVSSHHHHHH
size and number of NIBRG-14 plaques [3]: did not affect the size or number
Koff [8]: 2.8E^−3 s^−1
Kon [8]: 4.4E^+4 M^−1 · s^−1
binding to N1rec after prior binding of another N1-VHHm [8]: not affected
fold lower affinity KD than N1-5-VHHm and N1-3-VHHm, respectively [8]: 10- to 100 fold
Kd ([8]; read-out: KKD): 63 nM
